Here are results for 1 substance from IntAct's records for PubMed 21293379.

This experiment deals with nsd2_human NSD2 (UniProt O96028).
UniProt O96028, sequence (O96028 whole entry): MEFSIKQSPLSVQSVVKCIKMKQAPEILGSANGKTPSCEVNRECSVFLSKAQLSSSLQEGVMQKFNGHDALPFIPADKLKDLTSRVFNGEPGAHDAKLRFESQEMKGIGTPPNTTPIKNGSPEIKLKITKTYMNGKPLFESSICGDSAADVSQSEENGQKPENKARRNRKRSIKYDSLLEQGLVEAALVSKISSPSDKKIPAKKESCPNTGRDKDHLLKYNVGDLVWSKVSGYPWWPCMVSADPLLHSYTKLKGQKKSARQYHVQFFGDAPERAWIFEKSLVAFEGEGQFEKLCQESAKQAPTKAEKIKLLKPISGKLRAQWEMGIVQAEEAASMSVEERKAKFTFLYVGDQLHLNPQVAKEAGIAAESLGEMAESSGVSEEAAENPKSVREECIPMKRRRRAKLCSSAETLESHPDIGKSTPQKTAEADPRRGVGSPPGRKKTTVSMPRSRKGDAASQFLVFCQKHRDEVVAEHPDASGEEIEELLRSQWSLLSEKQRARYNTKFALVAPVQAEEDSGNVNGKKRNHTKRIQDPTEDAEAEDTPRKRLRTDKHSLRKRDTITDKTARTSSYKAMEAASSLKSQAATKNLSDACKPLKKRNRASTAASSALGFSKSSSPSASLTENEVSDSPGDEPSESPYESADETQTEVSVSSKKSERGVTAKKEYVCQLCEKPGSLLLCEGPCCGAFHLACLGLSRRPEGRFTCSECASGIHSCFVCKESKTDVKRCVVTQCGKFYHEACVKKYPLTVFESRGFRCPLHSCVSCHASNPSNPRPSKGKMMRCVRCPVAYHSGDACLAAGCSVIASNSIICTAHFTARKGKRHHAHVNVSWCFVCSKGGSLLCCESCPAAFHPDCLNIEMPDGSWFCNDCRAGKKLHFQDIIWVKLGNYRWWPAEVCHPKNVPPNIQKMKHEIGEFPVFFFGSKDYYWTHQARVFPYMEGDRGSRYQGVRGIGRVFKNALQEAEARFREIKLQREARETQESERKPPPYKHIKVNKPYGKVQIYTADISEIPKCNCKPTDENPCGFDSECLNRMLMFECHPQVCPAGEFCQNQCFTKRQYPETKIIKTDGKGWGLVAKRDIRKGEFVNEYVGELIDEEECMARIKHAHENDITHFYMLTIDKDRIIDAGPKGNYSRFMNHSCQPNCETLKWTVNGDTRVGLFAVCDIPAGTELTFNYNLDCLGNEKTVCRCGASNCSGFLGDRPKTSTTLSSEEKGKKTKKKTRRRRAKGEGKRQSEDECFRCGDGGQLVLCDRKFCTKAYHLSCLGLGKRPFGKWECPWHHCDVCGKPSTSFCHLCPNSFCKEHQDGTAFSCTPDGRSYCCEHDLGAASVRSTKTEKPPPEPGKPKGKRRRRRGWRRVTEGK

As for “Mediator of DNA damage checkpoint protein 1 (Homo sapiens), Q14676 K1936M”, the “effect of a mutation on the interaction” value is reported as “disrupting interaction”.
